Measurements reported in patent US10357539B2, “Use of peptides that block metadherin-SND1 interaction as treatment for cancer” (THE TRUSTEES OF PRINCETON UNIVERSITY, priority 2014, dated 2019).
Residue numbers refer to the chain shown, from its start. Numbers in names are those of the source.

B1: Δ39-43: SND1 with deletion in the SN1 Lβ2-β3 loop (Δ39-43) (protein)
chain: VPTVQRGIIKMVLSGCAIIVRGQPPERQINLSNIRAGNLARRAAATQPDAKDTPDEPWAFPAREFLRKKLIGKEVCFTIENKTPQGREYGMIYLGKDTNGENIAESLVAEGLATRREGMRANNPEQNRLSECEEQAKAAKKGMWSEGNGSHTIRDLKYTIENPRHFVDSHHQKPVNAIIEHVRDGSVVRALLLPDYYLVTVMLSGIKCPTFRREADGSETPEPFAAEAKFFTESRLLQRDVQIILESCHNQNILGTILHPNGNITELLLKEGFARCVDWSIAVYTRGAEKLRAAERFAKERRLRIWRDYVAPTANLDQK
modifications: left off: small tags and cut ends
B2: R255E: SND1 mutant R255E (protein, listed as Homo sapiens)
chain: MASSAQSGGSSGGPAVPTVQRGIIKMVLSGCAIIVRGQPRGGPPPERQINLSNIRAGNLARRAAATQPDAKDTPDEPWAFPAREFLRKKLIGKEVCFTIENKTPQGREYGMIYLGKDTNGENIAESLVAEGLATRREGMRANNPEQNRLSECEEQAKAAKKGMWSEGNGSHTIRDLKYTIENPRHFVDSHHQKPVNAIIEHVRDGSVVRALLLPDYYLVTVMLSGIKCPTFRREADGSETPEPFAAEAKFFTESELLQRDVQIILESCHNQNILGTILHPNGNITELLLKEGFARCVDWSIAVYTRGAEKLRAAERFAKERRLRIWRDYVAPTANLDQKDKQFVAKVMQVLNADAIVVKLNSGDYKTIHLSSIRPPRLEGENTQDKNKKLRPLYDIPYMFEAREFLRKKLIGKKVNVTVDYIRPASPATETVPAFSERTCATVTIGGINIAEALVSKGLATVIRYRQDDDQRSSHYDELLAAEARAIKNGKGLHSKKEVPIHRVADISGDTQKAKQFLPFLQRAGRSEAVVEYVFSGSRLKLYLPKETCLITFLLAGIECPRGARNLPGLVQEGEPFSEEATLFTKELVLQREVEVEVESMDKAGNFIGWLHIDGANLSVLLVEHALSKVHFTAERSSYYKSLLSAEEAAKQKKEKVWAHYEEQPVEEVMPVLEEKERSASYKPVFVTEITDDLHFYVQDVETGTQLEKLMENMRNDIASHPPVEGSYAPRRGEFCIAKFVDGEWYRARVEKVESPAKIHVFYIDYGNREVLPSTRLGTLSPAFSTRVLPAQATEYAFAFIQVPQDDDARTDAVDSVVRDIQNTQCLLNVEHLSAGCPHVTLQFADSKGDVGLGLVKEGLVMVEVRKEKQFQKVITEYLNAQESAKSARLNLWRYGDFRADDADEFGYSR
B3: R324E: SND1 mutant R324E (protein, listed as Homo sapiens)
chain: B2 chain with E255R, R324E
B4: F250A: SND1 mutant F250A (protein, listed as Homo sapiens)
chain: B2 chain with F250A, E255R
B5: WT HA-SND1: full-length HA-tagged wild-type human SND1 (protein)
chain: B2 chain with E255R
B6: R316E: SND1 mutation located outside the interface, negative control (protein)
chain: VPTVQRGIIKMVLSGCAIIVRGQPRGGPPPERQINLSNIRAGNLARRAAATQPDAKDTPDEPWAFPAREFLRKKLIGKEVCFTIENKTPQGREYGMIYLGKDTNGENIAESLVAEGLATRREGMRANNPEQNRLSECEEQAKAAKKGMWSEGNGSHTIRDLKYTIENPRHFVDSHHQKPVNAIIEHVRDGSVVRALLLPDYYLVTVMLSGIKCPTFRREADGSETPEPFAAEAKFFTESRLLQRDVQIILESCHNQNILGTILHPNGNITELLLKEGFARCVDWSIAVYTRGAEKLRAAEEFAKERRLRIWRDYVAPTANLDQK
modifications: left off: small tags and cut ends
notes: SND1 mutation located outside the interface, negative control
B7: R324A: SND1 mutant R324A (protein)
chain: B6 chain with E301R, R309A
modifications: left off: small tags and cut ends

biological target: T1, Myc-MTDH (Homo sapiens, UniProt Q86UE4, A78S/T317A); assay: Co-immunoprecipitation of HA-SND1 (WT or mutant) with Myc-MTDH in HEK293T cells; type: cell-based; conditions: HEK293T cell lysates
T1 construct: Full-length HA-tagged SND1 was co-expressed with full-length Myc-tagged wild-type (WT) or mutant MTDH in HEK293T cells; expressed in transfected cells; host or cells: HEK293T
T1 sequence (Q86UE4 1-582 A78S/T317A): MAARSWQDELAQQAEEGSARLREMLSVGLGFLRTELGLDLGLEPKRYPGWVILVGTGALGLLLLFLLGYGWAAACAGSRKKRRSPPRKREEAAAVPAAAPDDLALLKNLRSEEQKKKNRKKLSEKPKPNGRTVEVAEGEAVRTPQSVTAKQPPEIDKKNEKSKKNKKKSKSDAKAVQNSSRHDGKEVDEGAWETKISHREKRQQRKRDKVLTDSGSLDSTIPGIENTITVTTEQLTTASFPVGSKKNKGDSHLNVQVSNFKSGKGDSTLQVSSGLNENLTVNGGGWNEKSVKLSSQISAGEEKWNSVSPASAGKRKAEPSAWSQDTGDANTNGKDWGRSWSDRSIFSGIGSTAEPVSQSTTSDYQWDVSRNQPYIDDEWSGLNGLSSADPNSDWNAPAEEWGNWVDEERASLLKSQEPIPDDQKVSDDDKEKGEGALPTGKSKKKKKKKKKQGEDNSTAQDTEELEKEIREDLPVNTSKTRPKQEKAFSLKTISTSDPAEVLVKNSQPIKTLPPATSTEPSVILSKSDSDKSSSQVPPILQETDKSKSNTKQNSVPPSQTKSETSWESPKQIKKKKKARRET
Text: (§1) (FIG. 22A) In vitro pull-down of SND1 (16-339) by GST-tagged MTDH (364-582) harboring WT or mutant sequence. The proteins bound to GS4B were examined on SDS-PAGE and visualized by Coomassie blue staining. (FIG. 22B) In vitro pull-down of WT and mutant SND1 (16-339) by GST-tagged MTDH (364-582). The bound proteins were examined as in (FIG. 22A). For both (FIG. 22A) and (FIG. 22B), experiments were repeated three times; representative results are shown. The normalized percentage of binding was averaged from three experiments; mean±SEM was shown below the data. (FIG. 22C) HEK293T cells were transfected with human HA-SND1, WT Myc-MTDH or Myc-MTDH with indicated single point mutation. Lysates were immunoprecipitated with anti-Myc antibody and immunoblotted with the indicated antibodies. (FIG. 22D) HEK293T cells were transfected with human Myc-MTDH, WT HA-SND1 or mutant HA-SND1 with indicated single point mutations or deletions. Lysates were immunoprecipitated with anti-Myc and immunoblotted with the indicated antibodies.
Immunoprecipitation and western blot: For in vivo immunoprecipitation (IP) experiments, cultured cells were washed in cold PBS and lysed in lysis buffer (20 mM Tris pH 7.4, 0.15 M NaCl, 1 mM EDTA, 1 mM EGTA, 1% Tx-100, 0.0025 M Na2P2O7, 1 mM β-glycerolphosphate, 1 mM Na3VO4, and 1 mM NaF) with an EDTA-free protease inhibitor mixture (Roche Applied Science) and PMSF. Cell lysates were then incubated on ice for 10 min, centrifuged, and precleared by incubating with protein A/G beads (Santa Cruz Biotechnology) for 1 h at 4° C. For IP bead preparation, 30 μl of protein A/G beads were incubated with 5 μg of antibodies for 2 h at 4° C. IPs were carried out for overnight at 4° C., and beads were centrifuged, washed and subsequently boiled for 5 min in SDS protein loading buffer to elute bound protein. IP lysates were subjected to western blotting with indicated antibodies.

Molecule	interaction of full-length HA-SND1 (WT or mutant) with Myc-MTDH
B1	nearly completely abolished MTDH-binding
B2	nearly completely abolished MTDH-binding
B3	significantly reduced the binding
B4	nearly completely abolished MTDH-binding
B5	bound readily with Myc-MTDH
B6	bound readily with Myc-MTDH

biological target: T2, MTDH (364-582) (Homo sapiens, UniProt Q86UE4); assay: GST-mediated pull-down of SND1 constructs and mutants by GST-tagged MTDH (364-582); type: binding; conditions: SND1 mutants in SND1 (16-339)
T2 construct: made in house; host or cells: E. coli DH5α
T2 sequence (Q86UE4 364-582): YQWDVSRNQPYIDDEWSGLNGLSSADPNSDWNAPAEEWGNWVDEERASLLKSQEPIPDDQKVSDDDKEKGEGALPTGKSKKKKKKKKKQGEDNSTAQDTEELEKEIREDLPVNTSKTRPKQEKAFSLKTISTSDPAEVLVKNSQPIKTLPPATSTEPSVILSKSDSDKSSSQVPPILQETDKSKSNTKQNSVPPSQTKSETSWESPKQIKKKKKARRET
Text: as §1
GST-Mediated Pull-Down Assay: ˜20 μg of GST-MTDH (different truncation forms and site mutants) was bound to 10 μl of glutathione resin via GST tag. The resin was washed with 200 μl assay buffer (25 mM Tris, PH8.0, 150 mM NaCl, 3 mM DTT) three times to remove the excess unbound protein. 15 μg of His-SND1 (16-339) was added to the resin in a 100 μl volume suspended in the assay buffer with 2 mg/ml of BSA. The mixture was washed with 200 μl assay buffer twice before examined by SDS-PAGE, and visualized by Coomassie blue staining. The experiments were repeated 3 times and the ratio of SND1 associated with GST-MTDH was analyzed by ImageJ.

Molecule	MTDH-binding of SND1 domains and mutants, in vitro
B1	almost completely abolished MTDH-binding
B2	almost completely abolished MTDH-binding
B3	significantly weakened the MTDH-binding
B4	almost completely abolished MTDH-binding
B7	barely affected MTDH-binding
B6	barely affected MTDH-binding
